According to patent US20220411536A1 (NUMAB THERAPEUTICS, published 2022):

T1: recombinant human IL-23R (custom-made by Trenzyme) (human, UniProt Q5VWK5 24-355)
T1 sequence (looked up): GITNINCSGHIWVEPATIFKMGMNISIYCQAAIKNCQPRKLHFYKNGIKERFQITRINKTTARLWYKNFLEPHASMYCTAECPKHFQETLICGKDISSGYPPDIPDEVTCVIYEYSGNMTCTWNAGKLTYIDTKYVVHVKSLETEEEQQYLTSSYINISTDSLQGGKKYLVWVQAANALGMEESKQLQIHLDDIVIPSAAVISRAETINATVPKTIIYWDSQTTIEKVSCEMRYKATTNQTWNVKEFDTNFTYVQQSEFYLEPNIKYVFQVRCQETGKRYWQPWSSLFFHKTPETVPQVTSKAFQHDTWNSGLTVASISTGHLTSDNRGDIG


What was measured:
[1] = biological target: CD3e on Jurkat PD-1 NFAT reporter T cells or on T cells of human PBMCs (human, UniProt P07766 23-207); assay: cell-based or functional assay
[2] = biological target: T1, recombinant human IL-23R (custom-made …); assay: SPR, immobilised IL-23R
[3] = biological target: T2, recombinant human Her2 ECD (SinoBiological, cat. 10004-HCCH) (human, UniProt P04626 23-652); assay: SPR, immobilised Her2 ECD
T2 construct: extracellular domain; bought protein

[4] = biological target: T3, human serum albumin (human, UniProt P02768 25-609); assay: SPR, immobilised HSA, pH 5.5
T3 construct: also called HSA; human SA

[5] = biological target: T4, mouse serum albumin (mouse, UniProt P07724 25-608); assay: SPR, immobilised MSA, pH 5.5
T4 construct: also called MSA; mouse SA
T4 sequence (P07724 25-608 limits assumed): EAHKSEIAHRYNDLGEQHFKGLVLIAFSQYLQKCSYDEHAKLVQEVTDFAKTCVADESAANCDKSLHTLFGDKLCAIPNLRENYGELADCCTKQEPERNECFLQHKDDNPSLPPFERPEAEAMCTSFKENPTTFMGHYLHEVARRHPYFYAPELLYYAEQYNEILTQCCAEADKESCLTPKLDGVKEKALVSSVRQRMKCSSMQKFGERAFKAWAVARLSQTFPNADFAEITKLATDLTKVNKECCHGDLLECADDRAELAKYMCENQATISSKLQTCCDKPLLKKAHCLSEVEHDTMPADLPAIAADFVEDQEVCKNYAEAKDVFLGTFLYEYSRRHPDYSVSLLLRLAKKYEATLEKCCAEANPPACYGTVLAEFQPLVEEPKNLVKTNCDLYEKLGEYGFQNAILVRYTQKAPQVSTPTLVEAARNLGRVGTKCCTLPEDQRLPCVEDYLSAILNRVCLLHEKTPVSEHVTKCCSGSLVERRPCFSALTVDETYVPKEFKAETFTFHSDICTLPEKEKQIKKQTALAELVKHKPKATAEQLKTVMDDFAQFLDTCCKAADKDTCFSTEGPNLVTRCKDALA

[6] = biological target: T5, Fc-tagged human PD-L1 extracellular domain (SinoBiological, cat. 10084-H02H) (human, UniProt Q9NZQ7 19-238); assay: SPR, captured Fc-PD-L1 ECD, kinetic
T5 construct: extracellular domain; also called hPD-L1; not shown: Fc tag of the bought protein

[7] = biological target: T5, Fc-tagged human PD-L1 extracellular …; assay: SPR, captured Fc-PD-L1 ECD, steady state
[8] = biological target: T6, recombinant human CD3E ECD (SinoBiological, cat. 10977-H08H) (human, UniProt P07766 23-126); assay: SPR, immobilised CD3e ECD, two-state model
T6 construct: extracellular domain; bought protein; also called CD3s
T6 sequence (P07766 23-126): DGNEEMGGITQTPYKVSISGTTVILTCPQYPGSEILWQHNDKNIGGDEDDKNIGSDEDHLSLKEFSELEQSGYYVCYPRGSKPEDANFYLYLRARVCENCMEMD

[9] = biological target: T7, human PD-L1 expressed on cells (CHO-PD-L1, HCC1954, HCC827) (human, UniProt Q9NZQ7 19-290); assay: flow cytometry, inhibition of biotinylated PD-1 binding to HCC827 cells
T7 construct: whole, on cells; also called hPD-L1; PD-L1 expressing cells

[10] = biological target: T7, human PD-L1 expressed on cells …; assay: flow cytometry, inhibition of biotinylated PD-1 binding to HCC1954 cells
[11] = biological target: T6, recombinant human CD3E ECD …; assay: SPR, immobilised CD3e ECD, two-state model; overall KD of the two-state fit
[12] = biological target: T6, recombinant human CD3E ECD …; assay: SPR, immobilised CD3e ECD, two-state model (ka1); ka1, first step of the two-state fit
[13] = biological target: T6, recombinant human CD3E ECD …; assay: SPR, immobilised CD3e ECD, two-state model (kd1); kd1, first step of the two-state fit
[14] = biological target: T7, human PD-L1 expressed on cells …; assay: cell-based or functional assay
[15] = biological target: T7, human PD-L1 expressed on cells …; assay: flow cytometry, CHO-PD-L1 cells
[16] = biological target: T5, Fc-tagged human PD-L1 extracellular …; assay: SPR, captured Fc-PD-L1 ECD, scFv analyte, kinetic
[17] = biological target: T5, Fc-tagged human PD-L1 extracellular …; assay: SPR, alanine mutants of 33-03-G02

Binder | IC50, NFAT reporter, CHO-PD-L1 (A2 clone) cells [1] | IC50, NFAT reporter, HCC1954 cells [1] | rel. max. activation vs PRO1497, NFAT reporter, HCC1954 cells [1] | rel. max. activation vs PRO1497 on HCC1954, NFAT reporter, CHO-PD-L1 (A2 clone) cells [1] | Kd [2] | koff [2] | kon [2] | Kd [4] | koff [4] | kon [4] | Kd [5] | koff [5] | kon [5] | Kd [6] | IC50, neutralization of PD-L1 in NF-AT potency assay [14] | EC50 [15] | Kd [16] | koff [16] | kon [16] | binding result [3] | also measured
PRO830 (scFv, V domains shown, also called 33-03-G02; parental scFv) VH: QVQLQESGPGLVKPSETLSLTCKVSGFSFSSGYDMCWIRQPPGKGLEWIGCVVAGSVDITYYASWAKGRVTISVDSSKNQFSLKLSSVTAADTAVYYCARKDAYSDAFNLWGQGTLVTVSS VL: DIQMTQSPSSLSASVGDRVTITCQASQSINDYLAWYQQKPGKAPKLLIYKASTLASGVPSRFSGSGSGTDFTLTISSLQPEDFATYYCQQGYIITDIDNVFGTGTKVTVLG |  |  |  |  |  |  |  |  |  |  |  |  |  |  | 20.4 ng/mL | 0.0055 µg/mL | 0.0781 nM | 0.000139 s⁻¹ | 1.78e+06 M⁻¹ s⁻¹ |  | 
PRO1075 (scFv, V domains shown, also called 33-03-G02 VL-Q108A) VH: QVQLQESGPGLVKPSETLSLTCKVSGFSFSSGYDMCWIRQPPGKGLEWIGCVVAGSVDITYYASWAKGRVTISVDSSKNQFSLKLSSVTAADTAVYYCARKDAYSDAFNLWGQGTLVTVSS VL: DIQMTQSPSSLSASVGDRVTITCQASQSINDYLAWYQQKPGKAPKLLIYKASTLASGVPSRFSGSGSGTDFTLTISSLQPEDFATYYCQAGYIITDIDNVFGTGTKVTVLG |  |  |  |  |  |  |  |  |  |  |  |  |  |  | 828 ng/mL | 333 µg/mL | 12.2 nM | 0.0205 s⁻¹ | 1.67e+06 M⁻¹ s⁻¹ |  | fold reduction of affinity vs the original domain [17]: > 100 fold

The next lines start with results.

IC50, NFAT reporter, CHO-PD-L1 (A2 clone) cells [1] | IC50, NFAT reporter, HCC1954 cells [1] | rel. max. activation vs PRO1497, NFAT reporter, HCC1954 cells [1] | rel. max. activation vs PRO1497 on HCC1954, NFAT reporter, CHO-PD-L1 (A2 clone) cells [1] | Kd [2] | koff [2] | kon [2] | Kd [4] | koff [4] | kon [4] | Kd [5] | koff [5] | kon [5] | Kd [6] | IC50, neutralization of PD-L1 in NF-AT potency assay [14] | EC50 [15] | Kd [16] | koff [16] | kon [16] | Binder | binding result [3] | also measured
26 nM | 12.2 nM | 67% | 59% | 1.52 nM | 0.000471 s⁻¹ | 309000 M⁻¹ s⁻¹ | 0.693 nM | 0.000119 s⁻¹ | 171000 M⁻¹ s⁻¹ | 15.9 nM | 0.00108 s⁻¹ | 67900 M⁻¹ s⁻¹ | 1130 nM |  |  |  |  |  | PRO1545 (multispecific antibody) chain 1: DIQMTQSPSSLSASVGDRVTITCQASQSINDYLAWYQQKPGKAPKLLIYKASTLASGVPSRFSGSGSGTDFTLTISSLQPEDFATYYCQAAYIITDIDNVFGTGTKVTVLGGGGGSGGGGSGGGGSGGGGSQVQLQESGPGLVKPSETLSLTCKVSGFSFSSGYDMCWIRQPPGKGLEWIGCVVAGSVDITYYASWAKGRVTISVDSSKNQFSLKLSSVTAADTAVYYCARKDAYSDAFNLWGQGTLVTVSSGGGGSGGGGSDVVMTQSPSSLSASVGDRVTITCQASQIISSRSAWYQQKPGQPPKLLIYQASKLASGVPSRFSGSGSGTDFTLTISSLQPEDFATYYCQCTYIDSNFGAFGCGTKLTVLGGGSGGSDIQMTQSPSSLSASVGDRVTITCQSSQSVFSNNYLAWFQQKPGQSPKRLIYSASTLASGVPSRFSGSGSGTDFTLTISSLQPEDFATYYCLGSYACSSADCYVFGTGTKVTVLG chain 2: DIQMTQSPSSLSASVGDRVTITCQASENIYSFLAWYQQKPGKAPKLLIYSASKLAAGVPSRFSGSGSGTDFTLTISSLQPEDFATYYCQQTNRYSNPDIYNVFGTGTKVTVLGGGGGSGGGGSGGGGSGGGGSEVQLVESGGGLVQPGGSLRLSCAASGIDFNSNYYMCWVRQAPGKGLEWIGCIYVGSHVNTYYANWAKGRFTISRDNSKNTVYLQMNSLRAEDTAVYYCATSGSSVLYFKFWGQGTLVTVSSGGGGSGGGGSEVQLVESGGGLVQPGGSLRLSCAASGFSLSSYDMSWVRQAPGKGLAWIGASYASGPTYYASWAKGRFTISRDNSKNTVYLQMNSLRAEDTATYFCARGGWTGTSHSNIWGQGTLVTVSSGGGSGGGSEVQLVESGGGLVQPGGSLRLSCAASGFSFSSSYWICWVRQAPGKCLEWVGCVFTGDGTTYYASWAKGRFTISRDNSKNTVYLQMNSLRAEDTATYFCARPVSVYYYGMDLWGQGTLVTVSS | no binding (tested: 90 nM highest concentration) | koff [6]: 0.0022 s⁻¹; kon [6]: 1950 M⁻¹ s⁻¹; Kd [7]: 879 nM; KD1 [8]: 38.2 nM; kd2 [8]: 0.00432 s⁻¹; IC50 [9]: 88.1 µg/mL; IC50 [10]: 4.14 µg/mL; Kd [11]: 16.7 nM; kon [12]: 169000 M⁻¹ s⁻¹; koff [13]: 0.00645 s⁻¹
 |  |  |  |  |  |  |  |  |  |  |  |  |  | 1280 ng/mL | 51.2 µg/mL | 16.5 nM | 0.0328 s⁻¹ | 1.99e+06 M⁻¹ s⁻¹ | PRO1089 (scFv, V domains shown, also called 33-03-G02 VH-Y112A) VH: QVQLQESGPGLVKPSETLSLTCKVSGFSFSSGYDMCWIRQPPGKGLEWIGCVVAGSVDITYYASWAKGRVTISVDSSKNQFSLKLSSVTAADTAVYYCARKDAASDAFNLWGQGTLVTVSS VL: DIQMTQSPSSLSASVGDRVTITCQASQSINDYLAWYQQKPGKAPKLLIYKASTLASGVPSRFSGSGSGTDFTLTISSLQPEDFATYYCQQGYIITDIDNVFGTGTKVTVLG |  | fold reduction of affinity vs the original domain [17]: > 100 fold
31.5 nM | 95.4 nM | 28% | 60% | 0.848 nM | 0.000388 s⁻¹ | 458000 M⁻¹ s⁻¹ | 0.797 nM | 0.000134 s⁻¹ | 168000 M⁻¹ s⁻¹ | 17.3 nM | 0.00116 s⁻¹ | 67000 M⁻¹ s⁻¹ | 14.3 nM |  |  |  |  |  | PRO1546 (multispecific antibody) chain 1: DIQMTQSPSSLSASVGDRVTITCQASENIYSFLAWYQQKPGKAPKLLIYSASKLAAGVPSRFSGSGSGTDFTLTISSLQPEDFATYYCQQTNRYSNPDIYNVFGTGTKVTVLGGGGGSGGGGSGGGGSGGGGSEVQLVESGGGLVQPGGSLRLSCAASGIDFNSNYYMCWVRQAPGKGLEWIGCIYVGSHVNTYYANWAKGRFTISRDNSKNTVYLQMNSLRAEDTAVYYCATSGSSVLYFKFWGQGTLVTVSSGGGGSGGGGSDVVMTQSPSSLSASVGDRVTITCQASQIISSRSAWYQQKPGQPPKLLIYQASKLASGVPSRFSGSGSGTDFTLTISSLQPEDFATYYCQCTYIDSNFGAFGCGTKLTVLGGGSGGSDIQMTQSPSSLSASVGDRVTITCQSSQSVFSNNYLAWFQQKPGQSPKRLIYSASTLASGVPSRFSGSGSGTDFTLTISSLQPEDFATYYCLGSYACSSADCYVFGTGTKVTVLG chain 2: DIQMTQSPSSLSASVGDRVTITCQASQSINDYLAWYQQKPGKAPKLLIYKASTLASGVPSRFSGSGSGTDFTLTISSLQPEDFATYYCQAAYIITDIDNVFGTGTKVTVLGGGGGSGGGGSGGGGSGGGGSQVQLQESGPGLVKPSETLSLTCKVSGFSFSSGYDMCWIRQPPGKGLEWIGCVVAGSVDITYYASWAKGRVTISVDSSKNQFSLKLSSVTAADTAVYYCARKDAYSDAFNLWGQGTLVTVSSGGGGSGGGGSEVQLVESGGGLVQPGGSLRLSCAASGFSLSSYDMSWVRQAPGKGLAWIGASYASGPTYYASWAKGRFTISRDNSKNTVYLQMNSLRAEDTATYFCARGGWTGTSHSNIWGQGTLVTVSSGGGSGGGSEVQLVESGGGLVQPGGSLRLSCAASGFSFSSSYWICWVRQAPGKCLEWVGCVFTGDGTTYYASWAKGRFTISRDNSKNTVYLQMNSLRAEDTATYFCARPVSVYYYGMDLWGQGTLVTVSS | no binding (tested: 90 nM highest concentration) | koff [6]: 0.000345 s⁻¹; kon [6]: 24100 M⁻¹ s⁻¹; Kd [7]: 380 nM; KD1 [8]: 38.2 nM; kd2 [8]: 0.00533 s⁻¹; IC50 [9]: 254 µg/mL; IC50 [10]: 51.9 µg/mL; Kd [11]: 18.3 nM; kon [12]: 197000 M⁻¹ s⁻¹; koff [13]: 0.00752 s⁻¹
